From patent US20050048603A1 (priority 2001, published 2005)
Residue numbers refer to the chain shown, from its start.

B1: mycoAC204-443 (protein)
chain: MRGSHHHHHHGSDTARAEAVMEAEHDRSEALLANMLPASIAERLKEPERNIIADKYDEASVLFADIVGFTERASSTAPADLVRFLDRLYSAFDELVDQHGLEKIKVSGDSYMVVSGVPRPRPDHTQALADFALDMTNVAAQLKDPRGNPVPLRVGLATGPVVAGVVGSRRFFYDVWGDAVNVASRMESTDSVGQIQVPDEVYERLKDDFVLRERGHINVKGKGVMRTWYLIGRKVAADPGEVRGAEPRTAGV
B2: mycoAC204-443D300A (enzyme)
chain: B1 chain with D109A
B3: mycoAC204-443D256A (enzyme)
chain: B1 chain with D65A

Legend:
[1] = target: P9WQ35
[2] = target: T1, mycoAC204-443R376A (Mycobacterium tuberculosis, UniProt P9WQ35 204-443)
T1 sequence: B1 chain with R185A

Binder | specific adenylyl cyclase activity against protein concentration [1] | Kd [2]
B1 | From 50 to 300 nM it increased five-fold | 
B2 |  | 2000 nM
B3 |  | 2000 nM
